Tested on: MS2 coat protein
Assay: apparent KD of MS2 coat protein; designed switch direction (-1 OFF switch, 1 ON switch): 1; higher = weaker reporter binding
Procedure, shortened: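 Transcription of designed RNA switches on Illumina chips was done by stalled E. coli RNA polymerase. SNAP-549-labelled MS2 coat protein was then titrated in doubling steps from 0.7 or 1.5 nM to 3 µM, with steps of 0.8–1.5 h at the lowest and 10–20 min at the highest concentration. The per-design median over clusters of curve-fitted normalised fluorescence is reported as apparent KD.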

[1] = input ligand: microRNA oligo, concentration not stated
[2] = Eterna round: R95, input ligand: FMN 200 uM
[3] = Eterna round: R95, input ligand: microRNA oligo, concentration not stated
[4] = Eterna round: R95, input ligand: none

Sequence | apparent KD of MS2 coat protein (input ligand: FMN 200 uM) [nM] | apparent KD of MS2 coat protein [1] [nM] | apparent KD of MS2 coat protein (input ligand: none) [nM] | apparent KD of MS2 coat protein [2] [nM] | apparent KD of MS2 coat protein [3] [nM] | apparent KD of MS2 coat protein [4] [nM]
GGUCGGACUCACAUGAGGAUCACCCAUGUUGGCGAAAGCCGACAGGAUAUCUGUCCGAAAAGGUCAGAGAAGGGUUAACCGACC [Fiskers NG3ss - 61] (Eterna round: R96, puzzle: Same State NG 3) | 397 | 326 | 159 | – | – | –
UGUCCAGCCUGAGCUGGACAAAAGCAUGUACAUGAGGAUCACCCAUGUUCAUGUACAAGCUUUUUGCUCGUCUUAAU [salish99_208a_r3_031] (puzzle: Sensor for hsa-mir-208a) | – | – | – | 497 | 14.1 | 445
CGAUGAUACUUAGGAAGAAGAGUUGAGGUACAUGAGGAUCACCCAUGUCGGAGCUUUUUGCUCGUCAUGAACAGGAA [JR_SHM208a_Sub007] (puzzle: Sensor for hsa-mir-208a) | – | – | – | 65.2 | 34.8 | 79.5
UUGCGGGUUUGAGGAUAUUGAGUACAUAUGUUUAACAUGAGGAUCACCCAUGUGGGUUGCGGUAUCGAGAAGGUAACUUACUAC [salish99_SSNG2_r04_806] (Eterna round: R96, puzzle: Same State NG 2) | 179 | 68.9 | 110 | – | – | –
GUAUAACAUGAGGAUCACCCAUGUCAACAAAGUCGAGGAUAUGGGCAAUUAUAAUUAGAACCAGAAGGCGAAUAGU [Mat - Same State 1 - Mod of UCT - D43] (puzzle: Same State 1) | – | – | – | 30.8 | 287 | 251
GUAGCAUACCGAGGAUAUUCAUAUACAUGAGGAUCACCCAUGUUAAUAUAGGCCAAAAGGCCUUGGGAGAAGGCGGAAUGCUAC [Xeonanis - 20 Mod11] (Eterna round: R96, puzzle: Same State NG 2) | 9.01 | 9.83 | 13.3 | – | – | –
AGAUGUUAAUCAGGAUAUGGGCACAUGAGGAUCACCCAUGUAAUUUCGAUACUAUGUGGAGACGUCUAGAAGGGAUGGCUAACA [SameState NG2 #85] (Eterna round: R96, puzzle: Same State NG 2) | 162 | 101 | 134 | – | – | –
GUUAGGAAUCUAGCAAACAUGAGGAUCACCCAUGUAAGUGGGAAGGAUAUGGUACAGAAACUGUACCAGAAGGUCUUAUUGAUU [Omei SS(NG) 3 AV5] (Eterna round: R96, puzzle: Same State NG 3) | 81.7 | 247 | 371 | – | – | –
GUAGAUGUAGAGGAGGAUAUUCAAUGAGGAACAUGAGGAUCACCCAUGUAAGAGAGAGAUGAUAGGAAGAAGGCUUAGAGAGAUG [Altered State 2-5 - Jieux - Same State 2] (puzzle: Same State 2) | – | – | – | 24.2 | 31.7 | 43.1
CGUCCGGCCUGUGCUGGCCGGUGGCUUGUACAUGAGGAUCACCCAUGUUCUUGUGCUGGCUUGUUGCUCGUCUUGUG [salish99_mir208a_r3_022] (puzzle: Sensor for hsa-mir-208a) | – | – | – | 27.9 | 19.1 | 33.4
GCGCUCCAAGGAGCUGCGACAUGAGGAUCACCCAUGUAAUCACAGGAUAUGCGAUUCCGAAUUUUGCAGAAGGGUGAUAAGAAC [Asorila] (Eterna round: R96, puzzle: Same State NG 3) | 482 | 491 | 241 | – | – | –
GCUCGAUGAAAGUCCUACAUGAGGAUCACCCAUGUACGUGGGCAGGAUAUUUACAUGCAGAGUGUAGAGAAGGGCCCAUCGAGC [SameState NG3 #61] (Eterna round: R96, puzzle: Same State NG 3) | 18.3 | 50.2 | 76.4 | – | – | –
UCUUGGUUUUUGCUCGUUUUUUGUGUUGAACAUGAGGAUCACCCAUGUAUUGUACGGUCCAGUUUAGUGGUAGUCCG [JMF 70] (puzzle: Sensor for hsa-mir-208a) | – | – | – | 34.6 | 21.5 | 36.4
GCGAUAUGAUGUUACAUGAGGAUCACCCAUGUAGCGACAGCUAAGGAUAUUGGAAAGGGAGGAGACGAGAAGGUAGGGUCACGC [AK SSNG3-V2-24] (Eterna round: R96, puzzle: Same State NG 3) | 22.9 | 15.8 | 19.7 | – | – | –
GCAUCACAUGAGGAUCACCCAUGUCUUCGGAGUCGAGGAUAUGGUCACUGUAAACAGUGGCCAGAAGGCGAGGUGC [SS1 - Son of Teenbexe v4] (puzzle: Same State 1) | – | – | – | – | 53.4 | –
UCUUGGUUUUUGCUCGUUUUUUGUGUUGAACAUGAGGAUCACCCAUGUAUUGUACAAUCCGGUUUGAUGAUGGUCCG [JMF 52] (puzzle: Sensor for hsa-mir-208a) | – | – | – | 57.2 | 44.5 | 54.1

Sequence | apparent KD of MS2 coat protein (input ligand: FMN 200 uM) [nM] | apparent KD of MS2 coat protein [1] [nM] | apparent KD of MS2 coat protein (input ligand: none) [nM] | apparent KD of MS2 coat protein [2] [nM] | apparent KD of MS2 coat protein [3] [nM] | apparent KD of MS2 coat protein [4] [nM]
AAUUAUUAACAUGAGGAUCACCCAUGUAUCAUGAUUACUAUUAUUAGUAUCAUGAAUAGGGUUUUUGCUCGUCUUAU [ben_bell_2] (puzzle: Sensor for hsa-mir-208a version 2) | – | – | – | 85.9 | 26.2 | 53.5
UACAUACGCGGAGGAUAUGGGCGAGGCGCGGAGGUCCGCGCCAAAACAUGAGGAUCACCCAUGUCCCAGAAGGCCGCACAAACU [Atusso] (Eterna round: R96, puzzle: Same State NG 2) | 15.1 | 66.4 | 86.6 | – | – | –
AGGGAGGAAGCUGAGGAUAUCGUAAGGAGGACAUGAGGAUCACCCAUGUGUGUGGAAUUGGAGGACGAGAAGGCAGAGGAGUGGG [JR_SS2_Sub054] (Eterna round: R96, puzzle: Same State 2) | 40.5 | 35 | 38.4 | – | – | –
AAAGCACAUGAGGAUCACCCAUGUGGAAAUAACACAGGAUAUCCUGCCGAAACUAAGGUGGGAGAAGGGUGACCUA [Iszagece] (puzzle: Same State 1) | – | – | – | 147 | 54 | 55.9
AGCUAAAACGAAGGAUAUACUGACAUGAGGAUCACCCAUGUAUACAUGAUUUAUUGUGAUCACAUGUAGAAGGUCGUACUAACA [SameState NG2 #21] (Eterna round: R96, puzzle: Same State NG 2) | 310 | 269 | 413 | – | – | –
AAUUAUUAACAUGAGGAUCACCCAUGUAUUACUUCAUGUUUUUGCUCGUCUAUUAUUAUUAUUAUUAUUAUUAUUAA [Most simple design] (puzzle: Sensor for hsa-mir-208a version 2) | – | – | – | 282 | 40.1 | 340
AGUAGUGUAACAUGAGGAUCACCCAUGUAUGUAUAUGUAACCUAGGAUAUGGAGGUUAUGUUUGACCAGAAGGAGGAUUGUUUA [JR_SSNG3_Sub042] (Eterna round: R96, puzzle: Same State NG 3) | 29.7 | 28.7 | 33.7 | – | – | –
AAACGGCCCAACGGAGGGCCACAUGAGGAUCACCCAUGUACAUAGGAUAUCACACCAACAAGGCGUGAGAAGGGUGAUUAAAAC [Xeatte] (Eterna round: R96, puzzle: Same State NG 3) | 58.1 | 1120 | 747 | – | – | –
CGAAAGAAGCGAGGAUAUGCAGAGGAUCACCCUGCAGAAGGCGCAAAAGCGAGGAUAUGCAGAGGAUCACCCUGCAGAAGGCGC [pwkr ssNG DX.32] (Eterna round: R96, puzzle: Same State NG 1) | 20.2 | 20.5 | 18.1 | – | – | –
CACCAGAGGAGAGGAUAUGGUCGAACCCACAGUCCAGAAGGCUCACAGGAACCUAGAGACAUGAGGAUCACCCAUGUGGCGACC [Eternabot solution 7] (Eterna round: R96, puzzle: Same State NG 1) | 144 | 105 | 165 | – | – | –
GUGGUCAGACAUGAGGAUCACCCAUGUGGAAUAAAUAAGGGUUAGGAUAUCUAAUAUAGGAUAUAAGAGAAGGGAUGGUUGGUG (Eterna round: R96, puzzle: Same State NG 3) | 118 | 64.8 | 96.2 | – | – | –
UUAUACUAGAGAGGAUAUGCAGAGGAUCACCCUGCAGAAGGCUCGUUAGAGAGGAUAUGCAGAGGAUCACCCUGCAGAAGGCUC [pwkr ssNG DX.23] (Eterna round: R96, puzzle: Same State NG 1) | 17.2 | 8.62 | 15.2 | – | – | –
CGUCCGGCCUGUGCUGGCCGGUAUCAUGUACAUGAGGAUCACCCAUGUUCAUGUGCAGGCUUUUUGCUCGUCUUGUG [salish99_mir208a_012] (puzzle: Sensor for hsa-mir-208a) | – | – | – | 20.5 | 12.8 | 19.9
UAGAAACAUGAGGAUCACCCAUGUGUCAAAGACAUAGGAUAUCACGGCUAAAAUCAGCCGUGAGAAGGGUGGUAAA [Aisbira] (puzzle: Same State 1) | – | – | – | 57.1 | 61.1 | 56.2
ACAAGACAUGAGGAUCACCCAUGUAUAAAUUACACAGGAUAUCGGCAGGCAGCACCUGCACGAGAAGGGUGACUUC [Inbilera] (puzzle: Same State 1) | – | – | – | 193 | 21.7 | 27.3

Source: the supplement of paper PMC9170038
